Here are results for two molecules from paper PMC12521702, “Development of a trispecific fusion protein based on angiotensin-converting enzyme 2, glycoprotein 130, and tumor necrosis factor receptor 2 as a promising therapeutic for COVID-19” (Molecular Biomedicine, 2025).

The target in one assay is T1, mouse Hyper-IL-6 (mouse, UniProt P22272;P08505).
T1 construct: also called murine Hyper-IL-6; Hyper-IL-6-His; not shown: His tag, C-terminal, kept
T1 chain: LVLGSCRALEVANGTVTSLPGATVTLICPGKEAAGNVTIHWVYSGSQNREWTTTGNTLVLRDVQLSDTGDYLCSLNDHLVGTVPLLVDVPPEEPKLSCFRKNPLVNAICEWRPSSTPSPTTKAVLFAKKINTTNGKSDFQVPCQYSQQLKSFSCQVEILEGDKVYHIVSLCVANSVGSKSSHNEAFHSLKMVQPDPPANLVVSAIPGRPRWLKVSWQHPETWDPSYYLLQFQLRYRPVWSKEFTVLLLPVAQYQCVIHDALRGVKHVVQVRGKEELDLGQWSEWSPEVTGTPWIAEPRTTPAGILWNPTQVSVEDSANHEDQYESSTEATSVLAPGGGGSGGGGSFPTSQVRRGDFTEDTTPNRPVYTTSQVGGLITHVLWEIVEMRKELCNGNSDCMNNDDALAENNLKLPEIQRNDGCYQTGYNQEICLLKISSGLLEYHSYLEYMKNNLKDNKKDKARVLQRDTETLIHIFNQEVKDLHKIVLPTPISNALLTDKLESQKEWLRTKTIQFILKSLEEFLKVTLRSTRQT
The experiment in a line: ELISA; plates coated with 2 μg/mL Hyper-IL-6-His in carbonate-bicarbonate buffer pH 9.6; serial dilutions of fusion proteins from 50 nM, 1 h at 37 °C; HRP anti-human IgG. Conditions: both partners purified. In general terms: ELISA stands for enzyme-linked immunosorbent assay.

Another assay addresses human Hyper-IL-6 (human, UniProt P08887 20-355). Described as above. Conditions: both partners purified.

B1: ACE2 (M)-Fc-mGP130 (Fc fusion)
chain: QSTIEEQAKFFLDYFNHEAEDLFYQSSLASWNYNTNITEENVQNMNNAGDKWSAFLKEQSTWAQMYPLQEIQNLTVKLQLQALQQNGSSVLSEDKSKRLNTILNTMSTIYSTGKVCNPDNPQECLLLEPGLNEIMANSLDYNERLWAWESWRSEVGKQLRPLYEEYVVLKNEMARANHYEDYGDYWRGDYEVNGVDGYDYSRGQLIEDVEHTFEEIKPLYEHLHAYVRAKLMNAYPSYISPIGCLPAHLLGDMWGQFWTNLYSLTVPFGQKPNIDVTDAMVDQAWDAQRIFKEAEKFFVSVGLPNMTQGFWEYSMLTDPGNVQKAVCHPTAWDLGKGDFRILMCTKVTMDDFLTAHHEMGHIQYDMAYAAQPFLLRNGANEGFHEAVGEIMSLSAATPKHLKSIGLLSPDFQEDNETEINFLLKQALTIVGTLPFTYMLEKWRWMVFKGEIPKDQWMKKWWEMKREIVGVVEPVPHDETYCDPASLFHVSNDYSFIRYYTRTLYQFQFQEALCQAAKHEGPLHKCDISNSTEAGQKLFNMLRLGKSEPWTLALENVVGAKNMNVRPLLNYFEPLFTWLKDQNKNSFVGWSTDWSPYADQSIKVRISLKSALGDKAYEWNDNEMYLFRSSVAYAMRQYFLKVKNQMILFGEEDVRVANLKPRISFNFFVTAPKNVSDIIPRTEVEKAIRMSRSRINDAFRLNDNSLEFLGIQPTLGPPNQPPVSGGGGSGGGGSGGGGSQLLEPCGYIYPEFPVVQRGSNFTAICVLKEACLQHYYVNASYIVWKTNHAAVPREQVTVINRTTSSVTFTDVVLPSVQLTCNILSFGQIEQNVYGVTMLSGFPPDKPTNLTCIVNEGKNMLCQWDPGRETYLETNYTLKSEWATEKFPDCQSKHGTSCMVSYMPTYYVNIEVWVEAENALGKVSSESINFDPVDKVKPTPPYNLSVTNSEELSSILKLSWVSSGLGGLLDLKSDIQYRTKDASTWIQVPLEDTMSPRTSFTVQDLKPFTEYVFRIRSIKDSGKGYWSDWSEEASGTTYEDRPSRPPSFWYKTNPSHGQEYRSVRLIWKALPLSEANGKILDYEVILTQSKSVSQTYTVTGTELTVNLTNDRYVASLAARNKVGKSAAAVLTIPSPHVTAAYSVVNLKAFPKDNLLWVEWTPPPKPVSKYILEWCVLSENAPCVEDWQQEDATVNRTHLRGRLLESKCYQITVTPVFATGPGGSESLKAYLKQAAPARGPTVRTKKVGKNEAVLAWDQIPVDDQNGFIRNYSISYRTSVGKEMVVHVDSSHTEYTLSSLSSDTLYMVRMAAYTDEGGKDGPEFTFTTPKFAQGEIE
Usually EC50 stands for the concentration that produces a half-maximal response. Low values mean an effect from little substance, high ones a need for much substance. On to B1, for which the EC50 with mouse Hyper-IL-6 is 1.83 nM.

B2: ACE2 (M)-Fc-hGP130 (Fc fusion)
chain: QSTIEEQAKFFLDYFNHEAEDLFYQSSLASWNYNTNITEENVQNMNNAGDKWSAFLKEQSTWAQMYPLQEIQNLTVKLQLQALQQNGSSVLSEDKSKRLNTILNTMSTIYSTGKVCNPDNPQECLLLEPGLNEIMANSLDYNERLWAWESWRSEVGKQLRPLYEEYVVLKNEMARANHYEDYGDYWRGDYEVNGVDGYDYSRGQLIEDVEHTFEEIKPLYEHLHAYVRAKLMNAYPSYISPIGCLPAHLLGDMWGQFWTNLYSLTVPFGQKPNIDVTDAMVDQAWDAQRIFKEAEKFFVSVGLPNMTQGFWEYSMLTDPGNVQKAVCHPTAWDLGKGDFRILMCTKVTMDDFLTAHHEMGHIQYDMAYAAQPFLLRNGANEGFHEAVGEIMSLSAATPKHLKSIGLLSPDFQEDNETEINFLLKQALTIVGTLPFTYMLEKWRWMVFKGEIPKDQWMKKWWEMKREIVGVVEPVPHDETYCDPASLFHVSNDYSFIRYYTRTLYQFQFQEALCQAAKHEGPLHKCDISNSTEAGQKLFNMLRLGKSEPWTLALENVVGAKNMNVRPLLNYFEPLFTWLKDQNKNSFVGWSTDWSPYADQSIKVRISLKSALGDKAYEWNDNEMYLFRSSVAYAMRQYFLKVKNQMILFGEEDVRVANLKPRISFNFFVTAPKNVSDIIPRTEVEKAIRMSRSRINDAFRLNDNSLEFLGIQPTLGPPNQPPVSGGGGSGGGGSGGGGSELLDPCGYISPESPVVQLHSNFTAVCVLKEKCMDYFHVNANYIVWKTNHFTIPKEQYTIINRTASSVTFTDIASLNIQLTCNILTFGQLEQNVYGITIISGLPPEKPKNLSCIVNEGKKMRCEWDGGRETHLETNFTLKSEWATHKFADCKAKRDTPTSCTVDYSTVYFVNIEVWVEAENALGKVTSDHINFDPVYKVKPNPPHNLSVINSEELSSILKLTWTNPSIKSVIILKYNIQYRTKDASTWSQIPPEDTASTRSSFTVQDLKPFTEYVFRIRCMKEDGKGYWSDWSEEASGITYEDRPSKAPSFWYKIDPSHTQGYRTVQLVWKTLPPFEANGKILDYEVTLTRWKSHLQNYTVNATKLTVNLTNDRYLATLTVRNLVGKSDAAVLTIPACDFQATHPVMDLKAFPKDNMLWVEWTTPRESVKKYILEWCVLSDKAPCITDWQQEDGTVHRTYLRGNLAESKCYLITVTPVYADGPGSPESIKAYLKQAPPSKGPTVRTKKVGKNEAVLEWDQLPVDVQNGFIRNYTIFYRTIIGNETAVNVDSSHTEYTLSSLTSDTLYMVRMAAYTDEGGKDGPEFTFTTPKFAQGEIE
The molecule B2 yielded an EC50 with human Hyper-IL-6 of 1.55 nM.
